Publication PMC10655040

Biological target: CXCR4 (human (endogenous in HeLa)) (UniProt P61073)
Experiment: flow cytometry on cells; competition on HeLa cells: 100 nM sfGFP(Y151pAzF)-SDF-1β coincubated with 1 μM commercial SDF-1β (R&D) or 1 μM CXCR4 blocking agent AMD3100; 10 000 cells per sample

Chain of UniProt P61073 (P61073 whole entry): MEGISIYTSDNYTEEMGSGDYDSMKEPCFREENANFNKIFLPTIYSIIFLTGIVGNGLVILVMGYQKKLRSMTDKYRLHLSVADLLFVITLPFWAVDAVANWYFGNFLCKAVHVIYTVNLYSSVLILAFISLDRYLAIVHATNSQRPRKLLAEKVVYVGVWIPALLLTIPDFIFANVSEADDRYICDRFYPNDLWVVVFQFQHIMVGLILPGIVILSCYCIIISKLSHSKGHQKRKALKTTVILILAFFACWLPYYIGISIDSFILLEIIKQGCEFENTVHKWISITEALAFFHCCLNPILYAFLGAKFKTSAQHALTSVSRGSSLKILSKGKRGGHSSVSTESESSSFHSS

percent decrease of binding to HeLa cells with 1 μM AMD3100 (CXCR4 blocking agent): 30%
Substance: sfGFP(Y151pAzF)-SDF-1β (ligand)
